From US20210130452A1 (Merck KGaA, published 2021)

T1: human IL-17F (human, UniProt Q96PD4 31-163)
T1 construct: made in Hek293 cells (GenBank AF384857); also called hIL-17F; hIL17F
T1 sequence: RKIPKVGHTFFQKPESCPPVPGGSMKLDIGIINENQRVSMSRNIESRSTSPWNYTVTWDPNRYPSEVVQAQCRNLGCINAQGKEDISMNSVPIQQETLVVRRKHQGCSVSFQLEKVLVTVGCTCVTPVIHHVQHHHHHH

T2: marmoset IL-17A (marmoset, IL-17A is a disulfide-linked homodimer. One chain is given.)
T2 chain: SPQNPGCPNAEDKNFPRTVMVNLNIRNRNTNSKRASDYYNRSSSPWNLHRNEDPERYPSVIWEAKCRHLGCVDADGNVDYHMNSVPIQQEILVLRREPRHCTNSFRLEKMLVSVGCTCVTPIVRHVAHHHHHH

T3: mouse IL-17A (mouse, UniProt Q62386 26-158)
T3 sequence (looked up): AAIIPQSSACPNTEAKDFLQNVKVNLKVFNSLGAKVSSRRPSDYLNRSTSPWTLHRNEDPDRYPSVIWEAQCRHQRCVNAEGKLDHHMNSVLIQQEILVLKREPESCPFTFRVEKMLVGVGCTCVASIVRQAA

T4: rat IL-17A (rat, UniProt Q61453 18-150, limits assumed)
T4 sequence (looked up): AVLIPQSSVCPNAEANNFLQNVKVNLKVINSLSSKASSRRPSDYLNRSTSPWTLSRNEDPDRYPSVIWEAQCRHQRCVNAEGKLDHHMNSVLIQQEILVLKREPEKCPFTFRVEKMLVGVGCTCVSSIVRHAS

T5: human IL-17F (human, UniProt Q96PD4 31-163)
T5 construct: GenBank AF384857, expressed in Hek293 as 6-His C-terminal tagged protein; also called hIL-17F; IL-17F-6HIS
T5 sequence: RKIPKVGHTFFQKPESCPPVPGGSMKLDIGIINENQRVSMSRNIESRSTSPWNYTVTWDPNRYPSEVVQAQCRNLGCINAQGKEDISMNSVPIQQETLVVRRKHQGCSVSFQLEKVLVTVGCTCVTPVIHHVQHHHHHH

T6: mouse IL-17F (mouse, UniProt Q7TNI7 29-161)
T6 sequence (looked up): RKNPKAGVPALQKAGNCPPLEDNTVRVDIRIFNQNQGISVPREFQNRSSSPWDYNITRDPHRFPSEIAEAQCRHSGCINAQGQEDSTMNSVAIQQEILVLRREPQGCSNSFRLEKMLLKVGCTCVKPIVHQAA

T7: rat IL-17F (rat, UniProt Q5BJ95 29-161)
T7 sequence (looked up): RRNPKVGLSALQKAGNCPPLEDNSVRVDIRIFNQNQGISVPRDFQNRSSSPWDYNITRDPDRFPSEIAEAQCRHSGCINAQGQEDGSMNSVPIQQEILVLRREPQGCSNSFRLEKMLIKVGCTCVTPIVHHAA


Experiments:
[1] = biological target: T8, human IL-17A (human, UniProt Q16552 24-155); test: SPR
T8 construct: secreted form (GenBank U32659) expressed in Hek293 with C-terminal 6-His; also called hIL-17A; IL-17A-6HIS
T8 sequence (Q16552 other isoform, or with tags, fused parts or gaps): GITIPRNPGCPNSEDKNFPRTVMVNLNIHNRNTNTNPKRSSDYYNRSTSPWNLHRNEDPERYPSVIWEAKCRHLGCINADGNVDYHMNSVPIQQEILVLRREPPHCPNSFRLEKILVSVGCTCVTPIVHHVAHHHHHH

[2] = biological target: T9, human IL-17A/F heterodimer (human, UniProt Q16552 24-155; Q96PD4 31-163, limits assumed); test: SPR
T9 construct: produced in E. coli, bought from R&D Systems (Cat 5194-IL/CF); also called hIL-17A/F
T9 sequence (Q16552 24-155 limits assumed, chain 1 of 2, one chain of several): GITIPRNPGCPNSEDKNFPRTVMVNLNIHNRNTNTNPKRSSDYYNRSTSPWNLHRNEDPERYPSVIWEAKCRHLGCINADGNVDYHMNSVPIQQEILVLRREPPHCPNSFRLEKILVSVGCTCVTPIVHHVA

[3] = biological target: T8, human IL-17A; test: AlphaScreen IL-17A-IL-17RA, average
[4] = biological target: T1, human IL-17F; test: AlphaScreen IL-17F-IL-17RC; vs IL17MS16A04
[5] = biological target: T10, human IL-17A (human, UniProt Q16552 24-155); test: SPR (Biacore) off-rate
T10 construct: secreted form made in Hek293 cells (GenBank U32659); also called hIL-17A; hIL17A
T10 sequence (Q16552 other isoform, or with tags, fused parts or gaps): as the sequence (Q16552 other isoform, or with tags, fused parts or gaps) above

[6] = biological target: T1, human IL-17F; test: SPR (Biacore) off-rate
[7] = biological target: T11, human IL-17A/F heterodimer (human, UniProt Q16552 24-155; Q96PD4 31-163, limits assumed); test: SPR (Biacore) off-rate
T11 construct: bought, made in E. coli (R&D Systems 5194-IL/CF); also called hIL-17A/F; hIL17A/F
T11 sequence (Q16552 24-155 limits assumed, chain 1 of 2, one chain of several): as the sequence (Q16552 24-155 limits assumed, chain 1 of 2, one chain of several) above

[8] = biological target: T10, human IL-17A; test: AlphaScreen hIL-17A-IL-17RA; vs IL17MS13B03
[9] = biological target: T1, human IL-17F; test: AlphaScreen hIL-17F-IL-17RC; vs IL17MS13B03
[10] = biological target: T8, human IL-17A; test: ELISA, coated IL-17A
Method: (§1) Binding of a selected panel of anti-IL-17 Nanobodies to IL-17 of other species was assessed using a binding ELISA. […] HRP (horseradish peroxidase) conjugated anti-myc (Serotec, MCA 2200P) was used for detection using esTMB as substrate.

[11] = biological target: T2, marmoset IL-17A; test: ELISA, coated IL-17A
Method: as §1

[12] = biological target: T3, mouse IL-17A; test: ELISA, coated IL-17A
Method: as §1

[13] = biological target: T4, rat IL-17A; test: ELISA, coated IL-17A
Method: as §1

[14] = biological target: guinea pig IL-17A (guinea pig); test: ELISA, coated IL-17A
Method: as §1

[15] = biological target: T5, human IL-17F; test: ELISA, coated IL-17F;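 further: binding ELISA on coated antigen from various species, with bound Nanobodies revealed by an HRP-linked anti-myc antibody and esTMB substrate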
Method: as §1

[16] = biological target: T6, mouse IL-17F; test: ELISA, coated IL-17F;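 further: binding ELISA on coated antigen from various species, with bound Nanobodies revealed by an HRP-linked anti-myc antibody and esTMB substrate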
Method: as §1

[17] = biological target: T7, rat IL-17F; test: ELISA, coated IL-17F;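 further: binding ELISA on coated antigen from various species, with bound Nanobodies revealed by an HRP-linked anti-myc antibody and esTMB substrate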
Method: as §1

[18] = biological target: T8, human IL-17A; test: SPR, IL-17A-Nanobody complex over captured IL-17RA
From the text: (§2) The receptor (IL-17RA or IL-17RC) was captured via its human Fc-tail by an anti-human IgG-Fc antibody coated on the chip.

[19] = biological target: T5, human IL-17F; test: SPR, IL-17F-Nanobody complex over captured IL-17RC
From the text: as §2

Binder	IC50 fold difference vs WT [4]	koff [5]	koff [6]	koff [7]	IC50 fold difference compared to WT [8]	IC50 fold difference compared to WT [9]	further results
IL17MS3012 (VHH, name in Kabat numbering, basic + T23A; Kabat positions) VHH: EVQLVESGGGLVQPGGSQRLSCAASGTIVNIHVMGWYRQAPGKQRELVALIFSGGSADYADSVKGRFTISRDNSKNTVYLQMNSLRAEDTAVYYCAAEIGYYSGGTYYSSEAHWGQGTLVTVSS							koff [1]: 0.000137 s⁻¹; koff [2]: 0.000228 s⁻¹; IC50 [3]: 0.101 nM
IL17MS3017 (VHH, name in Kabat numbering, basic + Q18L, T23A, A84P; Kabat positions) VHH: EVQLVESGGGLVQPGGSLRLSCAASGTIVNIHVMGWYRQAPGKQRELVALIFSGGSADYADSVKGRFTISRDNSKNTVYLQMNSLRPEDTAVYYCAAEIGYYSGGTYYSSEAHWGQGTLVTVSS							koff [1]: 0.000144 s⁻¹; koff [2]: 0.000242 s⁻¹; IC50 [3]: 0.163 nM
IL17MS3013 (VHH, name in Kabat numbering, basic + A84P; Kabat positions) VHH: EVQLVESGGGLVQPGGSQRLSCTASGTIVNIHVMGWYRQAPGKQRELVALIFSGGSADYADSVKGRFTISRDNSKNTVYLQMNSLRPEDTAVYYCAAEIGYYSGGTYYSSEAHWGQGTLVTVSS							koff [1]: 0.000116 s⁻¹; koff [2]: 0.000185 s⁻¹; IC50 [3]: 0.081 nM
IL17MS3059 (VHH, variant of IL17MS16A04; Kabat numbering) VHH: DVQLVESGGGLVQPGGSLRLSCAASGRTFSSYVVGWFRQAPGKEREFVGAISGSGESIYYAVSEKGRFTISRDNSKNTLYLQMNSLRPEDTAVYYCTADQEFGYLRFGRSEYWGQGTLVTVSS	6.7 fold						
IL17MS3064 (VHH, variant of IL17MS16A04; Kabat numbering) VHH: DVQLVESGGGLVQPGGSLRLSCAASGRTFSSYVVGWFRQAPGKEREFVGAISGSGDTIYYAVSEKGRFTISRDNSKNTLYLQMNSLRPEDTAVYYCTADQEFGYLRFGRSEYWGQGTLVTVSS	30.3 fold						
IL17MS3062 (VHH, variant of IL17MS16A04; Kabat numbering) VHH: EVQLVESGGGLVQPGGSLRLSCAASGRTFSSYVVGWFRQAPGKEREFVGAISGSGESIYYAVSEKGRFTISRDNSKNTLYLQMNSLRPEDTAVYYCTADQEFGYLRFGRSEYWGQGTLVTVSS	7.4 fold						
IL17MS3065 (VHH, variant of IL17MS16A04; Kabat numbering) VHH: DVQLVESGGGLVQPGGSLRLSCAASGRTFSSYVVGWFRQAPGKEREFIGAISGSGDTIYYAVSEKGRFTISRDNSKNTLYLQMNSLRPEDTAVYYCTADQEFGYLRFGRSEYWGQGTLVTVSS	12.7 fold						
IL17MS3047 (VHH, variant of IL17MS13B03; Kabat numbering) VHH: EVQLVESGGGLVQPGGSLRLSCAASGRANSINWFGWFRQAPGKEREFVAGIRWSDAYTEYAASVKGRFTISRDNSKNTVYLQMNSLRPEDTAVYYCVLDLSTVRYWGQGTLVTVSS		0.000252 s⁻¹	0.00348 s⁻¹	0.000538 s⁻¹	1.1 fold	0.7 fold	
IL17MS3053 (VHH, variant of IL17MS13B03; Kabat numbering) VHH: EVQLVESGGGSVQAGDSLRLSCAASGRANTINWFGWFRQTPGKEREFVAGIRWSDAYTEYANSVKGRFTISRDNAKNTVDLQMDSLKPEDTAVYYCVLDLSTVRYWGQGTQVTVSS		0.000258 s⁻¹	0.00982 s⁻¹	0.00052 s⁻¹	1.3 fold	1.2 fold	
IL17MS3051 (VHH, variant of IL17MS13B03; Kabat numbering) VHH: EVQLVESGGGSVQAGDSLRLSCAASGRAFSINWFGWFRQTPGKEREFVAGIRWSDAYTEYANSVKGRFTISRDNAKNTVDLQMDSLKPEDTAVYYCVLDLSTVRYWGQGTQVTVSS		0.000205 s⁻¹	0.00216 s⁻¹	0.000396 s⁻¹	1.4 fold	0.4 fold	
IL17MS3052 (VHH, variant of IL17MS13B03; Kabat numbering) VHH: EVQLVESGGGSVQAGDSLRLSCAASGRASSINWFGWFRQTPGKEREFVAGIRWSDAYTEYANSVKGRFTISRDNAKNTVDLQMDSLKPEDTAVYYCVLDLSTVRYWGQGTQVTVSS		0.000289 s⁻¹	0.00439 s⁻¹	0.000518 s⁻¹	0.9 fold	0.5 fold	
17C01 (VHH, Class 4) VHH: EVQLVESGGRLVQAGGSLRLPCAASGRTFTSYPMGWFRQAPGKEREFVAAISMSGDDAAYADFVRGRFTISRDDARNTVYLHMTSLKPEDTAVYYCAARTSYDGTYDYIDDYSYWGQGTQVTVSS							OD [10]: 1.83 OD; OD [11]: 1.84 OD; OD [12]: -0.001 OD; OD [13]: 0 OD; OD [14]: 0.007 OD; OD [15]: 0.772 OD; OD [16]: -0.0005 OD; OD [17]: 0.0025 OD; % Biacore binding (IL-17A-NB)-IL-17RA [18]: -2.01%; % Biacore binding (IL-17F-NB)-IL-17RC [19]: 32.5%
